One assay concerns the target T1, His-tagged PaMurA (P. aeruginosa, UniProt Q9HVW7 1-421).
T1 construct: MurA of Pseudomonas aeruginosa PAO1; UniProt Q9HVW7 is printed for the covariation analysis; also called H–PaMurA; H–PaMurA(WT); source: purified (details in the Supplementary Information)
In words: […] (1:1), 25 mM Tris pH 8.0, 150 mM NaCl, 10% glycerol, 1 mM DTT, […]. The conditions noted are these: both partners purified.

Another assay concerns the target T2, H–PaMurA(E406K) (P. aeruginosa, UniProt Q9HVW7 1-421, E406K).
T2 construct: source: purified (details in the Supplementary Information)
Described as above. Particulars: both partners purified.

Experimental findings from paper PMC9995270 (Nature, 2023) are described below.

B1: Flag-tagged PaLpxC (enzyme)
chain: MIKQRTLKNIIRATGVGLHSGEKVYLTLKPAPVDTGIVFCRTDLDPVVEIPARAENVGETTMSTTLVKGDVKVDTVEHLLSAMAGLGIDNAYVELSASEVPIMDGSAGPFVFLIQSAGLQEQEAAKKFIRIKREVSVEEGDKRAVFVPFDGFKVSFEIDFDHPVFRGRTQQASVDFSSTSFVKEVSRARTFGFMRDIEYLRSQNLALGGSVENAIVVDENRVLNEDGLRYEDEFVKHKILDAIGDLYLLGNSLIGEFRGFKSGHALNNQLLRTLIADKDAWEVVTFEDARTAPISYMRPAAAV
notes: LpxC of Pseudomonas aeruginosa PAO1; UniProt P47205 is printed for the covariation analysis; also called F–PaLpxC; F–LpxC; source: purified (details in the Supplementary Information)
Regarding B1, the binding result with His-tagged PaMurA and with H–PaMurA(E406K) was “binds” in each case.
